One series deals with T1, CPS-6 H148A/P207E (Caenorhabditis elegans, UniProt Q95NM6 63-305, H148A;P207E).
T1 sequence: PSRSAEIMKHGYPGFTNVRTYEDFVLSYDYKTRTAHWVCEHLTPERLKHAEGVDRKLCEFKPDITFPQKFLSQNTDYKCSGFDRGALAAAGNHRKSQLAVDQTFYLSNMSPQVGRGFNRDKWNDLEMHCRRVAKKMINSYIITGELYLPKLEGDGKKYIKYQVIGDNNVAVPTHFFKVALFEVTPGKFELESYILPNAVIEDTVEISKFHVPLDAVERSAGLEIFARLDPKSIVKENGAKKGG
The series can be described thus: filter binding.

Another series has as its target T2, CPS-6 H148A (Caenorhabditis elegans, UniProt Q95NM6 63-305, H148A).
T2 sequence: T1 sequence with E145P
The series is described as follows: filter binding.

The target in the next series is T3, CPS-6 H148A/K131D/F132N (Caenorhabditis elegans, UniProt Q95NM6 63-305, H148A;K131D;F132N).
T3 sequence: T1 sequence with K69D, F70N, E145P
The series can be described thus: filter binding.

The series “SEC” concerns the molecule itself. The series is described as follows: SEC. In general terms: SEC sorts molecules by how far they enter the pores of the column.
The target of a further series is T4, CPS-6 H148A/F122A (Caenorhabditis elegans, UniProt Q95NM6 63-305, H148A;F122A).
T4 sequence: T1 sequence with F60A, E145P
The series is described as follows: X-ray crystallography.

The values below come from publication PMC5137453 (Nucleic Acids Research, 2016).

Numbering of substitutions follows the chain as printed. Numbers in names are those of the source.

For the molecule ACGCTGCCGAATTCTGGCGTTAGGAGATACCGATAAGCTTCGGCTTAA (ssDNA) [48-nt ssDNA], the Kd worked out at 804 nM with CPS-6 H148A/P207E, 159 nM in the series with CPS-6 H148A and 659 nM with CPS-6 H148A/K131D/F132N.

B1: CPS-6 H148A (enzyme)
chain: T1 sequence with E145P
For B1, the “stoichiometry N” value in the series “SEC” was 2.

B2: CPS-6 H148A/F122A (enzyme)
chain: T1 sequence with F60A, E145P
As to B2, the “stoichiometry N” value in the series “SEC” amounted to 2.
On to TTTTTTGT (ssDNA) [8-nt ssDNA (5'-TTTTTTGT-3')], for which the binding result in the series with CPS-6 H148A/F122A is reported as “binds”.

Broadly, the Kd is the concentration at which binding is half-saturated. One may read the stoichiometry N as the number of molecules, sites or subunits per partner or assembly.
